The values that follow come from paper PMC7749160, “Mycobacterial HelD is a nucleic acids-clearing factor for RNA polymerase” (Nature Communications, 2020).

Assay [1] deals with T1, β′ subunit of Mycobacterium smegmatis RNA polymerase (as in the recombinant core m2) (Mycobacterium smegmatis, UniProt A0QS66 1-1317).
T1 construct: RNA polymerase subunit β′, Mycobacterium smegmatis; In the cryo-EM sample it stood on one chain with β (β–β′ fusion of m2), within the core enzyme; also called RNAP β′; source: E. coli BL21(DE3), purified as part of the RNAP core (β–β′ fusion)
The assay is described as follows: cryo-EM structure; HelD and RNAP core mixed at a molar ratio of 3:1, 4 °C, 15 min; complex isolated on Superose 6 Increase in 20 mM Tris-HCl pH 7.8, 150 mM NaCl, 10 mM MgCl2, 1 mM DTT; three states (I, II, III) from one sample. The conditions noted are these: both partners purified.

For assay [2], the target named is T2, β subunit of Mycobacterium smegmatis RNA polymerase (as in the recombinant core m2) (Mycobacterium smegmatis, UniProt P60281 1-1169).
T2 construct: RNA polymerase subunit β, Mycobacterium smegmatis; In the cryo-EM sample it stood on one chain with β′ (β–β′ fusion of m2), within the core enzyme; also called RNAP β; source: E. coli BL21(DE3), purified as part of the RNAP core (β–β′ fusion)
T2 sequence: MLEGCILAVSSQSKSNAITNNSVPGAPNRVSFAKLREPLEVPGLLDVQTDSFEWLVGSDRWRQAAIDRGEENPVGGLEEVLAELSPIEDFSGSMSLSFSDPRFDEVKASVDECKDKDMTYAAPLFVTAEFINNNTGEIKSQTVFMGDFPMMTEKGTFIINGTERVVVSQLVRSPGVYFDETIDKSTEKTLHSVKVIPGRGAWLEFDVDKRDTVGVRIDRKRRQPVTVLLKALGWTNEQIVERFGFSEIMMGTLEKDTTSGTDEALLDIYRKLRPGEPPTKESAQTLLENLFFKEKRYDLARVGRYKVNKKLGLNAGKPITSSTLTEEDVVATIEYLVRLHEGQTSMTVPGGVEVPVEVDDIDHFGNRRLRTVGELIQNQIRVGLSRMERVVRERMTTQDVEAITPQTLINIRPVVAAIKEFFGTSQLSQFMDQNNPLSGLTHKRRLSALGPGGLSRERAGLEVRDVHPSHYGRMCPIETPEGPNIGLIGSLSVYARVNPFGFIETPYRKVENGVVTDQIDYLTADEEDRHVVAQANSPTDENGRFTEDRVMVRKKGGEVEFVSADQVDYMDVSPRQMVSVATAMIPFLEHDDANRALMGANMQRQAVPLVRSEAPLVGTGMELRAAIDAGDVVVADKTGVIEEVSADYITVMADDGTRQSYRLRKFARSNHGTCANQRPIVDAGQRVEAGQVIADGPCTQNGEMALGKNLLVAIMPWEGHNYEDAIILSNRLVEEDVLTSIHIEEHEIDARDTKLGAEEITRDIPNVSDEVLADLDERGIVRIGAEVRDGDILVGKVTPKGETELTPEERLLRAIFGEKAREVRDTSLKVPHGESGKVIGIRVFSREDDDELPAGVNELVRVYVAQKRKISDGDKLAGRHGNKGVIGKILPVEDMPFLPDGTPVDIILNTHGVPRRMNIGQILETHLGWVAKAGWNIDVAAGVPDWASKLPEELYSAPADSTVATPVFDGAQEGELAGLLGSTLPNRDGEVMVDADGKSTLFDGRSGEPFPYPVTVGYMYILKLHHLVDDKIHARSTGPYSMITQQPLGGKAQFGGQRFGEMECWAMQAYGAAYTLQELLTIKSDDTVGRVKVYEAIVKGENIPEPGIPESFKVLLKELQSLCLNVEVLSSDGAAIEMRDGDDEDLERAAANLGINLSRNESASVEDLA
Described as above. The conditions noted are these: both partners purified.

B1: Mycobacterium smegmatis HelD (MSMEG_2174), recombinant (natural protein, UniProt A0QUE0 2-736, looked up)
chain: SGRDYEDELQSERDYVAGLYARLDAERAQSQRRYAAALREHGGTAVERDAEVRALAKDIARLNVADNGLCFGRLDTLDDARLYIGRLGIFDRDNDFEPLLLDWRAPMARPFYVATAANPENMRRRRQFHTLGRKVVDFTDEILGRPTGAEHDATNDAALLAAVNAPRGEGMRDIVATIQAEQDQVIRLDHTGVLVIEGGPGTGKTVVALHRVAYLLYTYRKQMERHGVLVVGPTPAFLDHIGRVLPSLGESDAVFMTPGDFVPGLHVTAEDTPEAAEVKGSLKILDVLKAAVADRQELPSEPIPIDLSDVTMRIDAETAKWARDEARKTGLPHNEARAEFVDVVTYVVTERAVARIGRGWLTRDDKHAWEKMRADVVGELEDHEQFNAALDALWPILTPEDVLAQLYTSHERLRAAGAPECLWRADGEAWTVSDVPLLDELVDLLGRNKAADEAAERERREEEAYAAGVLDLMVDREDLMDDEDHLLAQDLIDAEELADRFKEQDNRELSERAAADREWTYGHVVVDEAQELSEMDWRLLMRRCPRRSFTIVGDLAQRRSPAGARSWGAMLDSYVPGRWVYKSLSVNYRTPAEIMAVAAAVLAEFAPDATPPDSVRACGVAPWARQVTDDDIASAIAEFVSEEAGREGTSVVIGPPDVPGTVPPSETKGLEFDAVLVVEPERILADGPRGAAELYVALTRATQRLGVLYRDALPQALAGLAEGDAAATVEQRTSA
notes: HelD, gene MSMEG_2174 of Mycobacterium smegmatis strain ATCC 700084/mc2 155; the tag is followed by the second amino acid of MSMEG_2174; Codon-optimised synthetic gene in pET302/NT-His; also called Msm HelD; source: E. coli Lemo 21 (DE3), purified (HisTrap, TEV protease, Superdex 75)
Consider B1, for which the binding result in assay [1] and in assay [2] was “binds” in each case.
